This note sets out measurements from patent US12060424 (AMUNIX PHARMACEUTICALS, dated 2024).

Assay [1] deals with T1, human CD3 on cells (CD3+ Jurkat cells; purified human CD3 positive T cells) (human, UniProt P07766 23-207).
T1 construct: whole, on cells; CD3 is a multi-subunit complex
Briefly: competition flow cytometry on Jurkat cells. (In general: Flow cytometry measures light scatter and fluorescence of single cells or particles in a stream.)

Assay [2] addresses T2, human EpCAM expressed on cells (CHO cells stably transfected with human EpCAM); EpCAM-positive human tumor … (human, UniProt P16422 24-314).
T2 construct: whole, on cells; also called EpCAM-CHO; hEp-CHO 4-12B
T2 sequence (looked up): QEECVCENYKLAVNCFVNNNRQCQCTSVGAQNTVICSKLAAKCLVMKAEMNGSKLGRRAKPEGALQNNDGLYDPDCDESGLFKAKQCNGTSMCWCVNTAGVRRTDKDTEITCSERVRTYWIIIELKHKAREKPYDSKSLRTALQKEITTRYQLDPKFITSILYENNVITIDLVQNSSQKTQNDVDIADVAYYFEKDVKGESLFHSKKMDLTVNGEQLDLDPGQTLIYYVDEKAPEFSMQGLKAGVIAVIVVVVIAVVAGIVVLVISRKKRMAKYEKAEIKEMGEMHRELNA
Put plainly: competition flow cytometry on hEp-CHO 4-12B cells.

T1 sequence (P07766 23-207): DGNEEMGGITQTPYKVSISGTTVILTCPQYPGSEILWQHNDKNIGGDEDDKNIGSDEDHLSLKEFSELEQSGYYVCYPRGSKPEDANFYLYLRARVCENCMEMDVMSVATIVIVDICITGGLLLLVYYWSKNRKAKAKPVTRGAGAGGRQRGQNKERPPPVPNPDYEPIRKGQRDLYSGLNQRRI

B1: AC1886 anti-EpCAM×anti-CD3 ProTIA with two XTEN (XTEN292-RSR3058-anti-EpCAM-anti-CD3 tandem scFv-RSR3058-XTEN_867-6xHIS) (bispecific antibody)
chain: SPAGSPTSTEEGTSESATPESGPGTSTEPSEGSAPGTSESATPESGPGSEPATSGSETPGTSESATPESGPGSEPATSGSETPGTSESATPESGPGTSTEPSEGSAPGSPAGSPTSTEEGTSESATPESGPGSEPATSGSETPGTSESATPESGPGSPAGSPTSTEEGSPAGSPTSTEEGTSTEPSEGSAPGTSESATPESGPGTSESATPESGPGTSESATPESGPGSEPATSGSETPGSEPATSGSETPGSPAGSPTSTEEGTSTEPSEGSAPGTSTEPSEGSAPGGSAPTTGEAGEAAGATSAGATGPATSGSETPGTDIQMTQSPSSLSASVGDRVTITCRSTKSLLHSNGITYLYWYQQKPGKAPKLLIYQMSNLASGVPSRFSSSGSGTDFTLTISSLQPEDFATYYCAQNLEIPRTFGQGTKVEIKGATPPETGAETESPGETTGGSAESEPPGEGQVQLVQSGPGLVQPGGSVRISCAASGYTFTNYGMNWVKQAPGKGLEWMGWINTYTGESTYADSFKGRFTFSLDTSASAAYLQINSLRAEDTAVYYCARFAIKGDYWGQGTLLTVSSGGGGSDIQMTQSPSSLSASVGDRVTITCRASQDIRNYLNWYQQKPGKAPKLLIYYTSRLESGVPSRFSGSGSGTDYTLTISSLQPEDFATYYCQQGNTLPWTFGQGTKVEIKGATPPETGAETESPGETTGGSAESEPPGEGEVQLVESGGGLVQPGGSLRLSCAASGYSFTGYTMNWVRQAPGKGLEWVALINPYKGVSTYNQKFKDRFTISVDKSKNTAYLQMNSLRAEDTAVYYCARSGYYGDSDWYFDVWGQGTLVTVSSGTAEAASASGTTGEAGEAAGATSAGATGPSPGSPAGSPTSTEEGTSESATPESGPGTSTEPSEGSAPGSPAGSPTSTEEGTSTEPSEGSAPGTSTEPSEGSAPGTSESATPESGPGSEPATSGSETPGSEPATSGSETPGSPAGSPTSTEEGTSESATPESGPGTSTEPSEGSAPGTSTEPSEGSAPGSPAGSPTSTEEGTSTEPSEGSAPGTSTEPSEGSAPGTSESATPESGPGTSTEPSEGSAPGTSESATPESGPGSEPATSGSETPGTSTEPSEGSAPGTSTEPSEGSAPGTSESATPESGPGTSESATPESGPGSPAGSPTSTEEGTSESATPESGPGSEPATSGSETPGTSESATPESGPGTSTEPSEGSAPGTSTEPSEGSAPGTSTEPSEGSAPGTSTEPSEGSAPGTSTEPSEGSAPGTSTEPSEGSAPGSPAGSPTSTEEGTSTEPSEGSAPGTSESATPESGPGSEPATSGSETPGTSESATPESGPGSEPATSGSETPGTSESATPESGPGTSTEPSEGSAPGTSESATPESGPGSPAGSPTSTEEGSPAGSPTSTEEGSPAGSPTSTEEGTSESATPESGPGTSTEPSEGSAPGTSESATPESGPGSEPATSGSETPGTSESATPESGPGSEPATSGSETPGTSESATPESGPGTSTEPSEGSAPGSPAGSPTSTEEGTSESATPESGPGSEPATSGSETPGTSESATPESGPGSPAGSPTSTEEGSPAGSPTSTEEGTSTEPSEGSAPGTSESATPESGPGTSESATPESGPGTSESATPESGPGSEPATSGSETPGSEPATSGSETPGSPAGSPTSTEEGTSTEPSEGSAPGTSTEPSEGSAPGSEPATSGSETPGTSESATPESGPGTSTEPSEGSAPGHHHHHH
notes: Uncleavable release segments RSR-3058; anti-EpCAM 4D5MOCB; hCD3.3
Regarding B1, the “fold weaker binding affinity than cleaved AC1695” value in assay [1] is roughly 30 fold; in assay [2], roughly 100 fold.

B2: AC1952 anti-human EpCAM×anti-human CD3 ProTIA with two XTEN, RSR-2295, uncleaved (bispecific antibody)
chain: SPAGSPTSTEEGTSESATPESGPGTSTEPSEGSAPGTSESATPESGPGSEPATSGSETPGTSESATPESGPGSEPATSGSETPGTSESATPESGPGTSTEPSEGSAPGSPAGSPTSTEEGTSESATPESGPGSEPATSGSETPGTSESATPESGPGSPAGSPTSTEEGSPAGSPTSTEEGTSTEPSEGSAPGTSESATPESGPGTSESATPESGPGTSESATPESGPGSEPATSGSETPGSEPATSGSETPGSPAGSPTSTEEGTSTEPSEGSAPGTSTEPSEGSAPGGSAPEAGRSANHTPAGLTGPATSGSETPGTDIQMTQSPSSLSASVGDRVTITCRSTKSLLHSNGITYLYWYQQKPGKAPKLLIYQMSNLASGVPSRFSSSGSGTDFTLTISSLQPEDFATYYCAQNLEIPRTFGQGTKVEIKGATPPETGAETESPGETTGGSAESEPPGEGQVQLVQSGPGLVQPGGSVRISCAASGYTFTNYGMNWVKQAPGKGLEWMGWINTYTGESTYADSFKGRFTFSLDTSASAAYLQINSLRAEDTAVYYCARFAIKGDYWGQGTLLTVSSGGGGSELVVTQEPSLTVSPGGTVTLTCRSSTGAVTTSNYANWVQQKPGQAPRGLIGGTNKRAPGTPARFSGSLLGGKAALTLSGVQPEDEAEYYCALWYSNLWVFGGGTKLTVLGATPPETGAETESPGETTGGSAESEPPGEGEVQLLESGGGLVQPGGSLKLSCAASGFTFNTYAMNWVRQAPGKGLEWVARIRSKYNNYATYYADSVKDRFTISRDDSKNTAYLQMNNLKTEDTAVYYCVRHGNFGNSYVSWFAYWGQGTLVTVSSGTAEAASASGEAGRSANHTPAGLTGPPGSPAGSPTSTEEGTSESATPESGPGTSTEPSEGSAPGSPAGSPTSTEEGTSTEPSEGSAPGTSTEPSEGSAPGTSESATPESGPGSEPATSGSETPGSEPATSGSETPGSPAGSPTSTEEGTSESATPESGPGTSTEPSEGSAPGTSTEPSEGSAPGSPAGSPTSTEEGTSTEPSEGSAPGTSTEPSEGSAPGTSESATPESGPGTSTEPSEGSAPGTSESATPESGPGSEPATSGSETPGTSTEPSEGSAPGTSTEPSEGSAPGTSESATPESGPGTSESATPESGPGSPAGSPTSTEEGTSESATPESGPGSEPATSGSETPGTSESATPESGPGTSTEPSEGSAPGTSTEPSEGSAPGTSTEPSEGSAPGTSTEPSEGSAPGTSTEPSEGSAPGTSTEPSEGSAPGSPAGSPTSTEEGTSTEPSEGSAPGTSESATPESGPGSEPATSGSETPGTSESATPESGPGSEPATSGSETPGTSESATPESGPGTSTEPSEGSAPGTSESATPESGPGSPAGSPTSTEEGSPAGSPTSTEEGSPAGSPTSTEEGTSESATPESGPGTSTEPSEGSAPGTSESATPESGPGSEPATSGSETPGTSESATPESGPGSEPATSGSETPGTSESATPESGPGTSTEPSEGSAPGSPAGSPTSTEEGTSESATPESGPGSEPATSGSETPGTSESATPESGPGSPAGSPTSTEEGSPAGSPTSTEEGTSTEPSEGSAPGTSESATPESGPGTSESATPESGPGTSESATPESGPGSEPATSGSETPGSEPATSGSETPGSPAGSPTSTEEGTSTEPSEGSAPGTSTEPSEGSAPGSEPATSGSETPGTSESATPESGPGTSTEPSEGSAPGHHHHHH
notes: XTEN-RSR2295-anti-EpCAM scFv-anti-CD3 (hCD3.9) scFv-RSR2295-XTEN-His6
As to B2, in assay [2], the “fold weaker binding affinity than cleaved AC1968” value is roughly 100 fold.
